According to patent US20240327525A1 (VIB VZW, published 2024):
Where two headings read alike, the source gives them in different places.

Legend:
[1] = biological target: T1, human CI-M6PR domain1-3His6 (human, UniProt P11717 41-467); test: BLI, association pH 7.4, dissociation at pH 5.0, mean of local fits
T1 construct: Recombinant, made in HEK293 cells; Biotinylated with NHS-PEG4-biotin for BLI; unlabelled in SEC-MALLS and crystallisation; also called CI-M6PR hDom1-3His6; hDom1-3His6
Method: (§1) FIGS. 9A-9E. […] BLI was performed on an Octet Red96 (FortéBio) instrument in kinetics buffer (0.2 M Na₂HPO₄, 0.1 M Na⁺citrate, 0.01% bovine serum albumin, 0.002% Tween-20). Biotinylated human domain₁₋₃His₆ was immobilized on Streptavidin SA biosensors (Sartorius) to a signal of 0.6 nm. […] Between runs, biosensors were regenerated by three times 10 s exposure to regeneration buffer (10 mM glycine pH 3). The degree of association and dissociation was measured in δ nm over time(s).
as §1, with “10A-10E.” for “9A-9E.”, “assays,” for “runs,”

[2] = biological target: human cation-independent mannose-6-phosphate receptor on cells (human, UniProt P11717 41-2491); test: cell-based or functional assay
[3] = biological target: T1, human CI-M6PR domain1-3His6; test: BLI, association pH 7.4, dissociation at pH 5.5, mean of local fits
Method: as §1
as §1, with “10A-10E.” for “9A-9E.”, “assays,” for “runs,”

[4] = biological target: T1, human CI-M6PR domain1-3His6; test: BLI, biotinylated antigen on SA tips, global 1:1 fit, association at pH 7.4
Method: (§2) Biotinylated human domain₁₋₃His₆ was immobilized on Streptavidin SA biosensors (Sartorius) to a signal of 0.6 nm. […] Between runs, biosensors were regenerated by three times 10 s exposure to regeneration buffer (10 mM glycine pH 3). The degree of association and dissociation was measured in δ nm over time(s).
as §1, with “10A-10E.” for “9A-9E.”, “assays,” for “runs,”
(§3) After loading, the tips were incubated with VHHs serially diluted in pH 7.4 kinetic buffer during the association phase and dissociation was performed at pH 7.4, pH 6.5, pH 6.0, pH 5.5 and pH 5.0. All biosensor tips were then regenerated before analysis of the subsequent VHH. Table 3 summarizes the kinetic parameters retrieved after processing and curve fitting of the BLI measurements.

[5] = biological target: T1, human CI-M6PR domain1-3His6; test: BLI, association pH 7.4, dissociation at pH 6.0, mean of local fits
Method: as §1
as §1, with “10A-10E.” for “9A-9E.”, “assays,” for “runs,”

[6] = biological target: T1, human CI-M6PR domain1-3His6; test: not stated in the sentence (pH-dependent dissociation)
[7] = biological target: T1, human CI-M6PR domain1-3His6; test: BLI, biotinylated antigen on SA tips, global 1:1 fit, dissociation at pH 7.4
Method: as §2
as §1, with “10A-10E.” for “9A-9E.”, “assays,” for “runs,”
as §3

[8] = biological target: T1, human CI-M6PR domain1-3His6; test: BLI, association pH 7.4, dissociation at pH 6.5, mean of local fits
Method: as §1
as §1, with “10A-10E.” for “9A-9E.”, “assays,” for “runs,”

[9] = biological target: T1, human CI-M6PR domain1-3His6; test: BLI at pH 7.4
[10] = biological target: T1, human CI-M6PR domain1-3His6; test: BLI, association pH 7.4, dissociation at pH 5.0, mean of local fits; remark: listed apart in the source
Method: (§4) FIG. 19-20. Association-dissociation graphs of anti-CI-M6PR VHH1H11 and VHH1H52, resp. analyzed using BLI. BLI was performed on an Octet Red96 (FortéBio) instrument in kinetics buffer (0.2 M Na₂HPO₄, 0.1 M Na⁺citrate, 0.01% bovine serum albumin, 0.002% Tween-20). Biotinylated human domain₁₋₃His₆ was immobilized on Streptavidin SA biosensors (Sartorius) to a signal of 0.6 nm. A 120 s association phase in VHH 1H11 (FIG. 19) or VHH 1H52 (FIG. 20) serially diluted (0-200 nM) in pH 7.4 phosphate citrate buffer, was followed by 420 s of dissociation in phosphate buffer of either pH 7.4, 6.5, 6.0, 5.5 or 5.0. Between assays, biosensors were regenerated by three times 10 s exposure to regeneration buffer (10 mM glycine pH 3). The degree of association and dissociation was measured in δ nm over time(s).
(§5) For VHH 1H11 (SEQ ID NO: 24) and VHH 1H52 (SEQ ID NO: 25), a BLI experiment was performed in which the human CI-M6PR domain₁₋₃His₆ was biotinylated and coupled to streptavidin biosensor tips. […] For measurements with association at pH 7.4 and dissociation at pH 6.5, 6.0, 5.5 and 5.0, the depicted dissociation rate constants are an average of the parameters determined by local curve fitting of the dissociation of 200, 100 and 50 nM VHH. […]

[11] = biological target: T1, human CI-M6PR domain1-3His6; test: BLI, association pH 7.4, dissociation at pH 5.5, mean of local fits; remark: listed apart in the source
Method: as §4, §5

[12] = biological target: T1, human CI-M6PR domain1-3His6; test: BLI, biotinylated antigen on SA tips, global 1:1 fit, dissociation at pH 7.4; remark: listed apart in the source
Method: (§6) For VHH 1H11 (SEQ ID NO: 24) and VHH 1H52 (SEQ ID NO: 25), a BLI experiment was performed in which the human CI-M6PR domain₁₋₃His₆ was biotinylated and coupled to streptavidin biosensor tips. After loading, the tips were incubated with VHHs serially diluted in pH 7.4 kinetic buffer during the association phase and dissociation was performed at pH 7.4, pH 6.5, pH 6.0, pH 5.5 and pH 5.0. All biosensor tips were then regenerated before analysis of the subsequent VHH. […] When both association and dissociation were performed at pH 7.4, a global fit was performed according to the 1:1 binding model of which the resulting affinity constants (KD), association (kₒₙ) and dissociation rate constants (koff) are shown. For measurements with association at pH 7.4 and dissociation at pH 6.5, 6.0, 5.5 and 5.0, the depicted dissociation rate constants are an average of the parameters determined by local curve fitting of the dissociation of 200, 100 and 50 nM VHH. Association-dissociation curves for VHH1H11 and VHH1H52 are shown in FIG. 19 and FIG. 20, respectively.

[13] = biological target: T1, human CI-M6PR domain1-3His6; test: BLI, biotinylated antigen on SA tips, global 1:1 fit, association at pH 7.4; remark: listed apart in the source
Method: as §6

[14] = biological target: T1, human CI-M6PR domain1-3His6; test: BLI, association pH 7.4, dissociation at pH 6.0, mean of local fits; remark: listed apart in the source
Method: as §4, §5

[15] = biological target: T1, human CI-M6PR domain1-3His6; test: BLI, association pH 7.4, dissociation at pH 6.5, mean of local fits; remark: listed apart in the source
Method: as §6

B1: anti-CI-M6PR VHH7 (VHH)
VHH: QVQLQESGGGLVQPGGSLRLSCAASGIIFSDNRMDWYRQAPGKQREWVATLASYGWKTYADSVKGRFTISRDNTKNTVYLRMNSLKPEDTAVYYCKASSPVLNDIWGQGTQVTVSS
notes: Purified by IMAC, so tagged; Labelled with Alexa Fluor 488 (NHS ester) in the imaging experiments
In the case of B1, the koff [1] is reported as 0.017 s⁻¹, the “internalisation rate (live-cell imaging of AF488-VHH on MCF7 cells)” value [2] is reported as 1.26e+06 summed AF-voxels/minute and the koff [3] is reported as 0.013 s⁻¹. For the same binder, the kon [4] was 540000 M⁻¹ s⁻¹, the koff [5] was 0.0099 s⁻¹ and the “fold higher dissociation rate at pH 6.0 versus pH 7.4” value [6] was 5 fold. The Kd [7] was 10.1 nM, the koff [7] was 0.0055 s⁻¹ and the koff [8] was 0.0091 s⁻¹.

B2: anti-CI-M6PR VHH8 (VHH)
VHH: QVQLQESGGGLVQAGGSLRLSCEASGRTFNTYNWGWFRQAPGKEREFVAAIRWSSSKTSYADSVKGRFTISRDNAKNTIYLQMNSLKPEDTAVYYCAASIVDFTTNPSHFGSWGQGTQVTVSS
notes: as for B1
In the case of B2, the koff [1] is reported as 0.023 s⁻¹, the “internalisation rate (live-cell imaging of AF488-VHH on MCF7 cells)” value [2] is reported as 673000 summed AF-voxels/minute and the koff [3] is reported as 0.0034 s⁻¹. The kon [4] was 610000 M⁻¹ s⁻¹, the koff [5] was 0.00091 s⁻¹ and the Kd [7] was 0.534 nM. The koff [7] was 0.00032 s⁻¹, the Kd [9] was roughly 3.35 nM and the koff [8] was 0.00084 s⁻¹.

B3: anti-CI-M6PR VHH 1H52 (VHH)
VHH: QVQLQESGGGLVQPGGSLRLSCTASGFTWDSYVIGWFRQAPGKGREGVSCLDVDDGSIYYHDSAKGRFSISRDNAKNTVYLQMNSLKPEDTAVYYCAAVNRASMRFRRCLQVLRYDYWGQGTQVTVSS
notes: Made in E. coli (pHEN6c), IMAC purified; tag not specified
A koff [10] of 0.2 s⁻¹, a koff [11] of 0.051 s⁻¹ and a Kd [12] of 31 nM were found for B3 in this work. It also gave a koff [12] of 0.032 s⁻¹, a kon [13] of 1e+06 M⁻¹ s⁻¹ and a koff [14] of 0.03 s⁻¹. It also gave a koff [15] of 0.067 s⁻¹.

B4: anti-CI-M6PR VHH 1H11 (VHH)
VHH: QVQLQESGGGLVQPGGSLRLSCAASGIIFSDNRMDWYRQAPGKQREWVATLASYGWKTYADSVKDRFTISRDNAKNTVNLYMNSLQPEDTAVYYCNSGQYWGQGTQVTVSS
notes: as for B3
A koff [10] of 0.0083 s⁻¹, a koff [11] of 0.0063 s⁻¹ and a Kd [12] of 4.9 nM were found for B4 in this work. The koff [12] was 0.0025 s⁻¹, the kon [13] was 510000 M⁻¹ s⁻¹ and the koff [14] was 0.0051 s⁻¹. The koff [15] was 0.0048 s⁻¹.
